The assay deals with ZFHD-FKBP fusion with 3 copies of the drug binding domain (3xFKBP). Description: cell-based or functional assay.

Consider “FRB-TA fusion (FRB fragment of FRAP/mTOR fused to a portion of human NF-KB p65 as transcription activator)”, for which the luciferase expression in mice (Xenogen imaging) after rapamycin 2 mg/kg IP, against pre-induction; Group 2, transcription factor unit under the CMV promoter is above 2 logs and the luciferase expression in mice (Xenogen imaging) after rapamycin 2 mg/kg IP, against pre-induction; Group 4, transcription factor unit under the TBG promoter was above 100 fold.

The values are drawn from patent publication US20120058102A1.
